{"source": "paper doi:10.1101/2023.09.08.556779", "about": "“Molecular model of a bacterial flagellar motor in situ reveals a “parts-list” of protein adaptations to increase torque” (bioRxiv, 2024)", "key": {"[1]": {"molecular_target": "PflB (C. jejuni 81–176 (endogenous in minicells))", "test": "cryo-EM structure; in situ single particle analysis of C. jejuni ΔflhG ΔflaAB minicells, C17 symmetry; focused refinement of the periplasmic scaffold and first basal disk ring to 7.9 Å; AlphaFold models docked or flexibly fitted"}, "[2]": {"molecular_target": "PflC, recombinant (C. jejuni)", "test": "SEC + other: mass photometry; analytical SEC on ENrich SEC 650 in 1× PBS, calibrated with 15–600 kDa standards; mass photometry in PBS"}, "[3]": {"molecular_target": "the molecule itself", "test": "SEC + other: mass photometry; analytical SEC on ENrich SEC 650 in 1× PBS, calibrated with 15–600 kDa standards; mass photometry in PBS"}, "[4]": {"molecular_target": "the molecule itself", "test": "cryo-EM structure; in situ single particle analysis of C. jejuni ΔflhG ΔflaAB minicells, C17 symmetry; focused refinement of the periplasmic scaffold and first basal disk ring to 7.9 Å; AlphaFold models docked or flexibly fitted"}}, "data": [{"molecule": "PflB (from UniProt A0A6F9L7Y3 1-820) (natural protein)", "values": [{"measurement": "stoichiometry N", "setting": "[1]", "value": 17}]}, {"molecule": "PflC, recombinant (natural protein)", "values": [{"measurement": "stoichiometry N", "setting": "[2]", "value": 2}]}, {"molecule": "PflCN (Δ236–349), recombinant (domain or fragment) GIERPKFEDFLAGYERNKASMLNYEGMPAFALSENLLAVLKQPNTKLNKYVKYDPFLNLYLVRTDFSLIPTPMGDEEKLTRNDWVGIWDPNKPYIGHIKYLAQNIDEKDQLDFNSKIGLLGTPCCEMMGIALNNSSFIGNRYLKHFMKYNDVYWGDIGVDFVVRENKIYVNNVRKNPQFLINDQVISVDGLPANDLRKLNEKILFADRGSTLYFQVLRDNSGGDGKFQFFIRLTK", "values": [{"measurement": "stoichiometry N", "setting": "[3]", "value": 2}]}, {"molecule": "FliL (natural protein, FliL of Campylobacter jejuni 81–176; an arc of four in each asymmetric unit of the proximal disk; source: endogenous, C. jejuni 81–176 (minicells imaged in situ; lysate of formaldehyde-crosslinked cells)) MDEELENEETKKKKGGSLVIIIVILLFVLLLSIMGVIAWLISSSSSDESEVKEAPKEEAKADKPKVSAPTQRGSDFANIGPMYPLDPFTLNLLSDSGSRYVKCTIELEQNSELLKPELDKKVPVIRDIIIRTLTAKTFEEVSTQKGKERLKDELVGKINEILTDGFIKNVYFTDFVVS", "values": [{"measurement": "stoichiometry N", "setting": "[4]", "value": 4}]}]}
